Experiment [1] addresses T1, FcRn-p3 fusion protein (human, UniProt P55899 24-297; P61769 21-119).
T1 construct: baculovirus expressed; coated on ELISA wells; not shown: amino terminal part of bacteriophage p3 protein and CVDE protein
As to the kind of experiment: phage ELISA pH6 (est.). For orientation: An ELISA detects its analyte on a solid surface through an enzyme-linked reagent.

Experiment [2] deals with T1, FcRn-p3 fusion protein. The experiment is described as follows: phage ELISA pH6.

T1 sequence (P55899 24-297, chain 1 of 2): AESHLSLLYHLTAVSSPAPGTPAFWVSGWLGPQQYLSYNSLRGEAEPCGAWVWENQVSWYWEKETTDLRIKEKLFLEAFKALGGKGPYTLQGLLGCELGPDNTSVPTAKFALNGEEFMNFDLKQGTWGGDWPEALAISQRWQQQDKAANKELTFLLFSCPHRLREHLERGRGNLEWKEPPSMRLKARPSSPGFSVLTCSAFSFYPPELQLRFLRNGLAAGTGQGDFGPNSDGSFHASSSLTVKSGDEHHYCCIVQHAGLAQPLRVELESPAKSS
T1 sequence (P61769 21-119, chain 2 of 2): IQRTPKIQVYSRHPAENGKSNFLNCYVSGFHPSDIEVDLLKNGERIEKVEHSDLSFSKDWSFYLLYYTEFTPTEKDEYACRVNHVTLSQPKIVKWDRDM

B1: C4A_36 (other)
chain: CPPCPAPELLGGPSVFLFPPKPKDTLMISRTPEVTCVVVDVSHEDPEVKFNWYVDGVEVHNAKTKPREEQYNSTYRVVSVLTVLHQDWLDGKEYTCKVSNKALPAPIEKTISKAKGQPREPQVYTLPPSRDELTKNQVSLTCLVKGFYPSDIAVEWESNGQPENNYKTTPPVLDSDGSFFLYSKLTVDKSRWQQGNVFSCSVMHEALHYHYTQKSLSLSPGK
notes: EU numbering
With B1, the Ratio/FWT in experiment [1] turned out to be 8.9 fold. The Ratio/Fc-H in experiment [2] worked out at 2.8 fold.

B2: C5A_03 (other)
chain: CPPCPAPELLGGPSVFLFPPKPKDTLMISRTPEVTCVVADVSHEDPEVKFNWYVDGVEVHNAKTKPREEQYNSTYRVVSVLTVLHQDWLDGKEYKCKVSNKALPAPIEKTISKAKGQPREPQVYTLPPSRDELTKNQVSLTCLVKGFYPSDIAVEWESNGQPENNYKTTPPVLDSDGSFFLYSKLTVDKSRWQQGNVFSCSVMHEALHYHYTQKSLSLSPGK
notes: EU numbering
With B2, in experiment [1], the Ratio/FWT stood at 8.7 fold. Further, the Ratio/Fc-H in experiment [2] turned out to be 2.7 fold.

B3: C5A_75 (other)
chain: CPPCPAPELLGGPSVFLFPPKPKDTLMISRTPEVTCVVVDVSHEDPEVKFNWYVDGVEVHNAKTKPREEQYNSTYRVVSVLNVLHQDWLDGKEYKCKVSNKALPAPIEKTISKAKGQPREPQVYTLPPSRDELTKNQVSLTCLVKGFYPSDIAVEWESNGQPENNYKTTPPVLDSDGSFFLYSKLTVDKSRWQQGNVFSCSVMHEALHYHYTQKSLSLSPGK
notes: EU numbering
Take B3: the Ratio/FWT in experiment [1] was 8.9 fold. In addition, in experiment [2], the Ratio/Fc-H turned out to be 2.8 fold.

B4: C5A_50 (other)
chain: CPPCPAPELLGGPSVFLFPPKPKDTLMISRTPEVTCVVVDVSHENPEVKFNWYVDGVEVHNAKTKPREEQYNSTYRVVSVLTVLHQDWLDGKEYKCKVSNKALPAPIEKTISKAKGQPREPQVYTLPPSRDELTKNQVSLTCLVKGFYPSDIAVEWESNGQPENNYKTTPPVLDSDGSFFLYSKLTVDKSRWQQGNVFSCSVMHEALHYHYTQKSLSLSPGK
notes: EU numbering
With B4, the Ratio/FWT in experiment [1] came to 7.3 fold. Moreover, in experiment [2], the Ratio/Fc-H is 2.3 fold.

B5: C5A_44 (other)
chain: CPPCPAPELLGGPSVFLFPPKPKDTLMISRTPEVTCVVVDVSHEDPEVKFNWYVDGVEVHNAKTKPREEQYNSTYRVVSVLTVLHQDWLDGKEYKCKVSNKALPAPIEKTISKAKGQPREPQVYTLPPSRDELTKNQVSLTCLVKGFYPSDIAVEWESNGQPEKNYKTTPPVLDSDGSFFLYSKLTVDKSRWQQGNVFSCSVMHEALHYHYTQKSLSLSPGK
notes: EU numbering
With B5, the Ratio/FWT in experiment [1] stood at 8.7 fold. Besides, the Ratio/Fc-H in experiment [2] is 2.7 fold.

B6: C5A_63 (other)
chain: CPPCPAPELLGGPSVFLFPPKPKDTLMISRTPEVTCVVVDVSHEDPEVKFNWYVDGVEVHNAKTKPREEQYNNTYRVVSVLTVLHQDWLDGKEYKCKVSNKALPVPIEKTISKAKGQPREPQVYTLPPSRDELTKNQVSLTCLVKGFYPSDIAVEWESNGQPENNYKTTPPVLDSDGSFFLYSKLTVDKSRWQQGNVFSCSVMHEALHYHYTQKSLSLSPGK
notes: EU numbering
Turning to B6, in experiment [1], the Ratio/FWT is 6.3 fold. For the same molecule, the Ratio/Fc-H in experiment [2] was 2 fold.

B7: C5A_41 (other)
chain: CPPCPAPELLGGPSVFLFPPKPKDTLMISRTPEVTCVVVDVSHEDPEVKFNWYVDGVEVHNAKTKPREEQYNSTYRVVSVLTVLHQDWLDGKEYKCKVSNKTLPVPIEKTISKAKGQPREPQVYTLPPSRDELTKNRVSLTCLVKGFYPSDIAVEWESNGQPENNYKTTPPVLDSDGSFFLYSKLTVDKSRWQQGNVFSCSVMHEALHYHYTQKSLSLSPGK
notes: EU numbering
On to B7, for which the Ratio/FWT in experiment [1] turned out to be 4.3 fold. The Ratio/Fc-H in experiment [2] was found to be 1.3 fold.

B8: C4A_41 (other)
chain: CPPCPAPELLGGPSVFLFPPKPKDTLMISRTPEVTCVVVDVSHEDPEVKFNWYVDGVEVHNAKTKPREEQYNSTYRVVSVLTVLHQDWLDGKEYKCKVSNKALPVPIEKTISKAKGQPREPQVYTLPPSRDELTKNEVSLTCLVKGFYPSDIAVEWESNGQPENNYKTTPPVLDSDGSFFLYSKLTVDKSRWQQGNVFSCSVMHEALHYHYTQKSLSLSPGK
notes: EU numbering
For the molecule B8, the Ratio/FWT in experiment [1] amounted to 10.8 fold. For the same molecule, the Ratio/Fc-H in experiment [2] was determined as 3.4 fold.

B9: C4A_45 (other)
chain: CPPCPAPELLGGPSVFLFPPRPKDTLMISRTPEVTCVVVDVSHEDPEVKFNWYVDGVEVYNAKTKPREEQYNSTYRVVSVLTVLHQDWLDGKEYKCKVSNKALPVPIEKTISKAKGQPREPQVYTLPPSRDELTKNQVSLTCLVKGFYPSDIAVEWESNGQPENNYKTTPPVLDSDGSFFLYSKLTVDKSRWQQGNVFSCSVMHEALHYHYTQKSLSLSPGK
notes: EU numbering
In the case of B9, the Ratio/FWT in experiment [1] turned out to be 7.2 fold. Besides, in experiment [2], the Ratio/Fc-H is 2.3 fold.

B10: C5A_20 (other)
chain: CPPCPAPELLGGPSVFLFPPKPKDTLMISRTPEVTCVVVDVSHEDPEVKFNWYVDGVEVHNAKTKPREEQYNSTYRVVSVLTVLHQDWLDGKEYKCKVSNKALPAPIEKTISKAKGQPREPQVYTLPPSRDELTKNQVSLTCLVKGFYPSDIAVEWESNGQPENNYKTTPPVLDSDGSFFLYSKLTVDKDRWQQGNVFSCSVMHEALHYHYTQKSLSLSPGK
notes: EU numbering
B10: the Ratio/FWT in experiment [1] was determined as 8.4 fold. In addition, the Ratio/Fc-H in experiment [2] is 2.6 fold.

B11: C5A_12 (other)
chain: CPPCPAPELLGGPSVFLFPPKPKDTLMISRTPEVTCVVVDVSHEDPEVKFNWYVDGVEVHNAKTKPREEQYNSTYRVVSVLTVLHQDWLDGKEYKCKVSNKALPAPIEKTISKAKGQPREPQVYTLPPSRDELTKNEVSLTCLVKGFYPSDIAVEWESNGQPEKNYKTTPPVLDSDGSFFLYSKLTVDKSRWQQGNVFSCSVMHEALHYHYTQKSLSLSPGK
notes: EU numbering
Regarding B11, the Ratio/FWT in experiment [1] amounted to 12.1 fold. Also, in experiment [2], the Ratio/Fc-H is 3.8 fold.

B12: C5A_15 (other)
chain: CPPCPAPELLGGPSVFLFPPKPKDTLMISRTPEVTCVVVDVSHEDPEVKFNWYVDGVEVHNAKTKPREEQYNSTYRVASVLTVLHQDWLDGKEYKCKVSNKALPVPIEKTISKAKGQPREPQVYTLPPSRDELTKNQVSLTCLVKGFYPSDIAVEWVSNGQPENNYKTTPPVLDSDGSFFLYSKLTVDKSRWQQGNVFSCSVMHEALHYHYTQKSLSLSPGK
notes: EU numbering
On to B12, for which, in experiment [1], the Ratio/FWT came to 10.9 fold. For the same molecule, the Ratio/Fc-H in experiment [2] is 3.4 fold.

B13: C5A_19 (other)
chain: CPPCPAPELLGGPSVFLFPPKPKDTLMISRTPEVTCVVADVSHEDPEVKFNWYVDGVEVHNAKTKPREEQYNSTYRVVSALTVLHQDWLDGKEYKCKVSNKALPVPIEKTISKAKGQPREPQVYTLPPSRDELTKNQVSLTCLVKGFYPSDIAVEWESNGQPENNYKTTPPVLDSDGSFFLYSKLTVDKSRWQQGNVFSCSVMHEALHYHYTQKSLSLSPGK
notes: EU numbering
As for B13, in experiment [1], the Ratio/FWT was determined as 9.3 fold. In addition, the Ratio/Fc-H in experiment [2] amounted to 2.9 fold.

B14: C5A_58 (other)
chain: CPPCPAPELLGGPSVFLFPPKPKDTLMISRTPEVTCVVEDVSHEDPEVKFNWYVDGVEVHNAKTKPREEQYNSTYRVVSVLTVLHQDWLNGKEYKCKVSNKALPAPIEKTISKAKGQPREPQVYTLPPSRDELTKNQVSLTCLVKGFYPSDIVVEWESNGQPENNYKTTPLVLDSDGSFFLYSKLTVDKSRWQQGNVFSCSVMHEALHSHYTQKSLSLSPGK
notes: EU numbering
As for B14, the Ratio/FWT in experiment [1] is 9.1 fold. Also, the Ratio/Fc-H in experiment [2] was determined as 2.8 fold.

The values above are taken from patent USRE46585 (LABORATOIRE FRANCAIS DU FRACTIONNEMENT ET DES …, dated 2017).
